Test results published in PMC10135305.

Biological target: C-terminal domain of catalase-3 (CAT-3) of Neurospora crassa (TDC3) (Neurospora crassa) (UniProt Q9C169)
Experiment: SEC; Superdex 75 HR 10/300 on FPLC; TDC3 1 mg/mL injected, 0.75 mL/min; mass from gel filtration standards

- stoichiometry N: 2
Substance: C-terminal domain of catalase-3 (CAT-3) of Neurospora crassa (TDC3) (from UniProt Q9C169 568-719) (domain or fragment)
